Earlier results on one substance are cited in paper PMC2945288.

For the data set, the target named is coat protein (procapsid) (Salmonella phage P22) (UniProt P26747).
Sequence of UniProt P26747 (P26747 2-430): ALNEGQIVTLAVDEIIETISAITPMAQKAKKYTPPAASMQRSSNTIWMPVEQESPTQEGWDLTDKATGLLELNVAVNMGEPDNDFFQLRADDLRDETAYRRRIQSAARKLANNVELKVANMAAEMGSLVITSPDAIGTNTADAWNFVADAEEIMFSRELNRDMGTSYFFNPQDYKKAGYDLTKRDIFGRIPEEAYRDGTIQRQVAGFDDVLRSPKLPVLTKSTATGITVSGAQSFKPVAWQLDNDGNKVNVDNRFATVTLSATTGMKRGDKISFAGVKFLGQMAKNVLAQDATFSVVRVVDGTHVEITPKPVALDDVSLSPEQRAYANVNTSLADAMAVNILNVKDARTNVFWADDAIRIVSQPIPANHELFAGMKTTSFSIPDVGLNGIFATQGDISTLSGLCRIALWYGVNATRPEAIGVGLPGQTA

As usually defined, the Kd is the constant that tells how readily two partners part at equilibrium. As to “scaffolding protein (loosely bound) (from UniProt P26748)”, the Kd is 28 µM.
